Results from paper doi:10.1101/2022.05.14.491971.

Biological target: Mab3862, antitoxin of the type 2 TA class of Mycobacterium abscessus (Mycobacterium abscessus (ATCC 19977))
Experiment: crystal structure

## Mab3862, antitoxin of the type 2 TA class of Mycobacterium abscessus (natural protein)
  stoichiometry N: 2
